Results as given in publication PMC8464830 (Biomolecules, 2021).

Target: T1, human Calmodulin-1 (human, UniProt P0DP23 1-149)
T1 construct: also called hCaM-1; hCaM
Experiment: SPR
Settings: both partners purified

B1: HIV-1 MA clade C (92BR025.8) construct with residue 1-109, lacking the C-terminal helix α5 (domain or fragment)
chain: MGARASILRGGKLDAWERIKLKPGGKKHYMMKHLVWASRELERFALDPGLLETSEGCKQIMKQLQPALQTGTKELISLHNTVATLYCVHEKIDVRDTKEALDKIKEEQN
B1: binds.
